Source: paper PMC8771563, “Mitochondrion-targeted supramolecular “nano-boat” simultaneously inhibiting dual energy metabolism for tumor selective and synergistic chemo-radiotherapy” (Theranostics, 2022)
Peptide text beside a SMILES is read from it. * marks the point of attachment. X1 = O=C(c1nn(Cc2ccc(Cl)cc2Cl)c2ccccc12)*; Cyclenylacetyl = O=C(CN1CCNCCNCCNCC1)*; NBD = O=[N+]([O-])c1ccc(*)c2nonc12; βAla = NCCC(=O)O

How the values were obtained:
MCF-7 cells [1] = experiment: CCK-8 cytotoxicity assay; format: cell-based; details: 200 μM, 48 h
Procedure: Circular dichroism (CD) spectra
The secondary structure of LND- Pep-cyclen hydrogel and NBD- Pep-cyclen hydrogel were monitored by a circular dichroism (CD) spectrophotometer (BioLogic, MOS-450, France) system. The self-assembled hydrogel was added into a 0.1 cm quartz spectrophotometer cell (20- C/Q/0.1), then the CD signals were recorded in the 180- 280 nm scanning wavelength range. The final spectrogram was obtained after subtracting the PBS solvent background.
Mammary carcinoma cancer cells (MCF-7 and 4T1), and mouse fibroblast cells normal cells (L929) were all maintained in our lab. These cells were cultured in DMEM (MCF-7) and RPMI 1640 medium (4T1 and L929) supplemented with 10%
FBS and 1% penicillin-streptomycin in a humidified incubator maintained at 37 °C and 5% CO2, respectively.
Cytotoxicity and apoptosis analysis
All kinds of cells were seeded in 96-well plates at a density of 5000 cells per well. After 24 h incubation, the cells were treated with a series of pre-determined doses of LND-Pep-cyclen nanofibers, free LND, free cyclen, mixture of free LND and cyclen molecules for 48 h. After adding 10 μL CCK-8 solution to each well, the cells were incubated at 37 °C for another 4 h. OD450 was measured using a Thermo Scientific™ Varioskan™ LUX (Thermo, CA, USA), and then the cell viability values

MCF-7 cells [2] = experiment: Annexin V-FITC/PI apoptosis flow cytometry; format: cell-based; details: 50 μM, 48 h, Figure 2D
Procedure: of different groups at different doses were calculated. For apoptosis assay, MCF -7 and L929 cells were cultured in 6-well plates at a density of 2 × 10^5 cells per well, then were treated with different forms of drug for 48 h. Afterwards, cells were harvested at 1000 rpm for 5 min and then washed with ice-cold PBS twice. Upon being suspended in 100 μL 1× binding buffer, the samples were incubated with 5 μL of FITC-Annexin- V and 5 μL of PI for 15 min at room temperature in the dark. Finally, the cells were added in 100 μL 1× binding buffer blending gently and analyzed by flow cytometry (Becton Dickinson, NJ, USA) within 1 h.
MCF-7 cancer cells and L929 normal cells with a density of 1×10^5 cells/mL were cultured in confocal chambers and 6-well plates at 37 °C, respectively. After 70% confluence, the cells were treated with fresh medium which contained the same concentrations of LND-Pep-cyclen nanofibers, LND, cyclen, mixture of free LND and cyclen molecules for 12 h. Then, followed by washing twice with PBS and incubated with 1 mL DCFH-DA (10 μM) at 37 °C for 30 min in the dark. The cells in 6-well plates were harvested, washed, re- suspended and then loaded on flow cytometry for quantitate analysis. […] Excitation at 488 nm and signal collection at 525 ± 10 nm for DCFH-DA fluorescence. […]

MCF-7 cells [3] = experiment: MMP depolarization (JC-1 probe, CLSM); format: cell-based; details: 50 μM, 24 h, serum-free medium, JC-1 10 µg/mL 30 min
Procedure: MCF-7 cancer cells with a density of 2 × 10^5 cells/mL were cultured in confocal cuvettes under 5% CO2 at 37 °C. After the number of anchorage-dependent cells reached up to 70%, the cells were incubated with a replaceable serum-free medium containing different forms of the drug (50 μM) for 24 h. This was followed by washing away the drug that was not absorbed and staining with 1 mL JC-1 probe (10 µg/mL) for 30 min in dark. After washing with PBS for three times, the cells were imaged by CLSM to examine the fluorescence intensity of the J-monomers and the J-aggregates.

MCF-7 cells [4] = experiment: ATP content (luminescent assay); format: cell-based; details: 50 μM, 24 h, per cell, control = 100%, mean n = 5
Procedure: MCF-7 cells with a density of 5000 cells/well were seeded in 96-well plates, and then were cultured at the incubators for 24 h at 37 °C under 5% CO2. After co-incubation with different forms of drugs for another 24 h, the growth medium was removed, and the wells were washed twice with PBS. The cell number of each group was counted before all the measurements. After dissociation and centrifugation, the liquid supernatant was collected for the following analysis of the HK activity and the lactate content. The hexokinase (HK) activity of the cells in each group was determined by the OD340 absorbance according to the specification of the HK activity assay kit (Solarbio, BC0745). The intracellular lactate content was detected using an L-lactate assay kit (Promega, J5021) and depended on the OD565 absorbance. A luminescent ATP detection assay kit (Abcam, ab113849) was used to analyze the quantity of ATP. All the data were shown as the mean value in per cell of each group.

MCF-7 cells [5] = experiment: Colony formation assay / radio-sensitization; format: cell-based; details: 10 μM, 12 h, γ-rays 0-6 Gy, multi-target single-hit model, n = 3
Procedure: MCF-7 cells (1,000/well) were seeded in six-well plates and incubated with different forms of drugs at a concentration of 10 μM after 12 h. Subsequently, they were irradiated with γ-rays at doses of 0, 2, 4, and 6 Gy at 36 h. Following this, the cells were continuously cultured with a fresh drug-free medium in an incubator for another 5-8 days. The fixed colonies were then stained using crystal violet (0.25%, ethanol) for subsequently counting the number of colonies, and evaluating the colony inhibition ability of each treatment. Only colonies containing >50 cells were counted and survival curves were plotted with Origin. Furthermore, the SER value was used to compare the efficiencies of the different drugs in improving the sensitivity of the MCF-7 cells to radiotherapy. The SER was determined by a classical multi-target single-hit model using the following equation:
S = 1 - (1 - e ^-D/D0)^n (1)
where S is the survival fraction, D is the radiation dose, D0 is the mean lethal dose, and n is the extrapolation number. D0 and n were calculated using the“GraphPad Prism” software (version 8.0). The final survival fraction curve of each group was obtained by a nonlinear fitting using Origin 2018, and the SER was expressed using the following formulae:
SER = Dq (control group)/Dq (treated group (2)

MCF-7 tumors = experiment: In vivo anti-tumor evaluation; details: MCF-7 tumor bearing nude mice, single i.v. injection, 5 mg/kg LND equivalent, day 14, vs PBS control
Procedure: (§1) MCF-7 cells (1×10^7 cells per mouse) were subcutaneously injected into the breast regions of six-week-old nude mice to establish the tumor model. When the tumor volume grew to approximately 100 mm^3, all the mice were randomly divided into eight groups with seven mice in each group. Except for the control groups, all groups were intravenously administrated with 200 μL of LND-Pep-cyclen nanofibers, free LND, and mixture of free LND and free cyclen (5 mg/kg LND equivalent and 2 mg/kg cyclen equivalent), respectively. After 12 hours, the mice in the chemo-radiotherapy group were exposed to 6 Gy γ-rays. To evaluate the therapeutic efficacy, the tumor size and the body weight were recorded daily. The tumor volumes were measured using a vernier caliper and then calculated using the formula: (width^2×length)/2. On the 14th day, all the mice were euthanized when the tumor volume in the PBS control group reached approximately 1500 mm^3. The tumors and normal tissues including heart, liver, spleen, lung and kidney in each group were carefully collected, photographed, and then fixed in 4% form aldehyde for histological analysis.

[6] = H&E histology of major organs after treatment; format: in vivo, nude mice; details: single administration, compared with control group (Figure S22)
Procedure: as §1

[7] = Bio-compatibility evaluation (hematology, blood biochemistry); format: in vivo; details: BALB/c mice, 20 mg/kg i.v. at day 0, 7, 14, 21 (four injections), n = 5
Procedure: Cambridge, UK), anti-Bcl-2 (1:1000, Abcam, Cambridge, UK), anti-smac and anti-GAPDH antibody. After washing with 1 ×TBST, membranes were incubated with corresponding secondary antibody for 1 h at room temperature. The membranes were washed 3 times by 1 ×TBST and illuminated by an enhanced chemiluminescent (ECL) kit (Pierce™ ECL Western Blotting Substrate, Thermo Scientific, Rockford, IL, USA) on a Bio- Rad film (Sigma-Aldrich, St. Louis, MO, USA).
Bio-compatibility evaluation
Six-week-old BALB/c mice were randomly assigned to two groups and intravenously administrated with 200 μL of LND-Pep-cyclen nanofibers (20 mg/kg) and PBS at 0 day, 7 day, 14 day, 21 day. All the mice were sacrificed at the last time point, followed by collecting the whole body blood for the hematology and blood

MCF-7 cells [8] = format: cell-based
Procedure: To confirm our hypothesis, we subsequently used a fluorescent molecule of 7-nitrobenzo-2-oxa-1,3-diazole (NBD), to replace LND, resulting in another peptide conjugate of NBD-GFFYK-cyclen (NBD-Pep-cyclen). […] Therefore, the NBD-Pep-cyclen conjugate could be very qualified as a substitute for LND-Pep-cyclen to verify its mitochondrial targeting performance. After incubation with MCF-7 cells for 4 hours, the cellular distribution of the NBD-Pep-cyclen nanofibers was investigated. […] The endocytosis mechanism for the cellular uptake was investigated using several well-established endocytotic inhibitors. […] In contrast, the addition of NaN3 (an inhibitor of energy-dependent endocytosis) and chlorpromazine (an inhibitor of clathrin-mediated endocytosis) reduced the uptake to less than 50%. […]
Figure S9 (A) CLSM images of MCF-7 cells treated with NBD-Pep-cyclen
nanofibers in the absence and presence of endocytotic inhibitors. […]

MCF-7 and L929 cells = experiment: Flow cytometry of NBD accumulation in cancer versus normal cells; format: cell-based; details: 50 μM, 4 h, flow cytometry MFI, n = 3

Structure (SMILES): O=C(O)c1nn(Cc2ccc(Cl)cc2Cl)c2ccccc12 [LND, Lonidamine]
- Cell survival rate (MCF-7 cells [1]): 50%
- Cells in lower right quadrant (PI / Annexin V-FITC plot); early apoptosis rate (MCF-7 cells [2]): 1.45%
- MMP depolarization (MCF-7 cells [3]): very limited effect
- ATP content, of control (MCF-7 cells [4]): 60%
- SER (sensitization enhancement ratio) (MCF-7 cells [5]): 1.78
- Tumor growth / final tumor volume, chemotherapy only (MCF-7 tumors): barely inhibit the tumor growth

Structure (SMILES): O=C(CN1CCNCCNCCNCC1)NCCCC[C@H](NC(=O)[C@H](Cc1ccc(O)cc1)NC(=O)[C@H](Cc1ccccc1)NC(=O)[C@H](Cc1ccccc1)NC(=O)CNC(=O)c1nn(Cc2ccc(Cl)cc2Cl)c2ccccc12)C(=O)O [LND-Pep-cyclen] (X1-GFFYK(Cyclenylacetyl)-OH)
- Histological changes in liver, spleen, kidney, heart, lung (H&E) [6]: no appreciable inflammatory damage and tissue damage
- Liver and kidney indices (ALT, AST, TBIL, BUN) ([7]; vs control): normal with no relevant difference
- Blood routine values ([7]; vs untreated control): no apparent variations

Structure (SMILES): O=C(CCNc1ccc([N+](=O)[O-])c2nonc12)NCC(=O)N[C@@H](Cc1ccccc1)C(=O)N[C@@H](Cc1ccccc1)C(=O)N[C@@H](Cc1ccc(O)cc1)C(=O)N[C@@H](CCCCNC(=O)CN1CCNCCNCCNCC1)C(=O)O [NBD-Pep-cyclen] ({NBD-βAla}-GFFYK(Cyclenylacetyl)-OH)
- Cellular uptake in presence of NaN3 (MCF-7 cells [8]): less than 50%
- Cellular uptake in presence of chlorpromazine (MCF-7 cells [8]): less than 50%
- Cellular uptake in presence of nystatin (MCF-7 cells [8]): barely affected
- Cellular uptake in presence of wortmannin (MCF-7 cells [8]): barely affected
- NBD fluorescence intensity in MCF-7 cells relative to L929 cells (MCF-7 and L929 cells): more than two-folds
